The text below walks through data of publication PMC3194040.

The target of the assay is Recombinant full-length His6-tagged DEG7 (Ser206Ala) (Arabidopsis thaliana). Nature of the assay: SEC.

For “Recombinant full-length His6-tagged DEG7 (Ser206Ala) (enzyme)”, the stoichiometry N was found to be 3.

As a reminder, the stoichiometry N is a count of units in the complex or per binding partner.
